The experiment has as its target HLA-A*02 (human). Briefly: UV peptide-exchange ELISA, yield grade. A general note: An ELISA detects its analyte on a solid surface through an enzyme-linked reagent.
Molecule ALCPRIHEV [ALCPRIHEV (SEQ ID NO: 84)] had a peptide exchange yield of at least 75%.
As for KMPDVELFV [KMPDVELFV (SEQ ID NO: 117)], the peptide exchange yield is 50 to 75%.
In turn, MLAGIAITV [MLAGIAITV (SEQ ID NO: 148)] registered a peptide exchange yield of 50 to 75%.
Regarding QLIQTLHAV [QLIQTLHAV (SEQ ID NO: 114)], the peptide exchange yield was 50 to 75%.
Next, TVVTRLDEI [TVVTRLDEI (SEQ ID NO: 78)]: 20 to 49%; LLLPAVPVGA [LLLPAVPVGA (SEQ ID NO: 94)]: 50 to 75%.
The molecule HLSTIIHEA [HLSTIIHEA (SEQ ID NO: 135)] returned a peptide exchange yield of 50 to 75%.
Molecule QLWQFLVTL [QLWQFLVTL (SEQ ID NO: 118)] came in with a peptide exchange yield of 50 to 75%.
In turn, VLNDILVRA [VLNDILVRA (SEQ ID NO: 85)] yielded a peptide exchange yield of 50 to 75%.
In the case of GLLGSLFFL [GLLGSLFFL (SEQ ID NO: 95)], the peptide exchange yield is at least 75%.
Molecule ALLAKILQI [ALLAKILQI (SEQ ID NO: 138)] came in with a peptide exchange yield of 50 to 75%.
In the case of GLAVPTPSV [GLAVPTPSV (SEQ ID NO: 134)], the peptide exchange yield was in the range of 50 to 75%.
The figure for RLQDILWFL [RLQDILWFL (SEQ ID NO: 129)] is at least 75%; for FLQDLEQRL [FLQDLEQRL (SEQ ID NO: 90)] it is 50 to 75%; for FLLPTGAEA [FLLPTGAEA (SEQ ID NO: 139)] it is 20 to 49%.
Next, FINDSIVYL [FINDSIVYL (SEQ ID NO: 106)]: 50 to 75%; ILVEGISTV [ILVEGISTV (SEQ ID NO: 142)]: 50 to 75%; LLVSHLYLV [LLVSHLYLV (SEQ ID NO: 96)]: 20 to 49%.
As for YLVSEIFKA [YLVSEIFKA (SEQ ID NO: 103)], the peptide exchange yield was in the range of 50 to 75%.
The molecule FIFDEAEKL [FIFDEAEKL (SEQ ID NO: 82)] had a peptide exchange yield below 20%.
In turn, VTFKEYVTV [VTFKEYVTV (SEQ ID NO: 79)] showed a peptide exchange yield of 20 to 49%.
Molecule SLLGGTFVGI [SLLGGTFVGI (SEQ ID NO: 130)] returned a peptide exchange yield of 50 to 75%.
Next, FTIFRTISV [FTIFRTISV (SEQ ID NO: 121)]: 50 to 75%.
Next, SLGKFTFDV [SLGKFTFDV (SEQ ID NO: 112)]: at least 75%; KLYEADFVL [KLYEADFVL (SEQ ID NO: 80)]: 20 to 49%; ALLPELREV [ALLPELREV (SEQ ID NO: 143)]: 50 to 75%.
The figure for SLDPDTLPAV [SLDPDTLPAV (SEQ ID NO: 115)] is 20 to 49%; for FLERGLESA [FLERGLESA (SEQ ID NO: 113)] it is 20 to 49%.
As for TIYKDFVYI [TIYKDFVYI (SEQ ID NO: 87)], the peptide exchange yield was in the range of 20 to 49%.
As for KLDGNELDL [KLDGNELDL (SEQ ID NO: 127)], the peptide exchange yield fell in the range of 50 to 75%.
The figure for QMFQYFITV [QMFQYFITV (SEQ ID NO: 126)] is at least 75%; for ILLKNLVTI [ILLKNLVTI (SEQ ID NO: 108)] it is 20 to 49%; for ILNTHITEL [ILNTHITEL (SEQ ID NO: 149)] it is 50 to 75%.
In turn, LLVPTSGIYFV [LLVPTSGIYFV (SEQ ID NO: 107)] gave a peptide exchange yield of 50 to 75%.
In the case of VTPVTVSAV [VTPVTVSAV (SEQ ID NO: 120)], the peptide exchange yield is below 20%.
In turn, ALLGTKILL [ALLGTKILL (SEQ ID NO: 105)] showed a peptide exchange yield of 50 to 75%.
The molecule AVGPVHNSV [AVGPVHNSV (SEQ ID NO: 76)] displayed a peptide exchange yield of 20 to 49%.
On to ALLPRLHQL [ALLPRLHQL (SEQ ID NO: 133)], for which the peptide exchange yield is at least 75%.
The figure for VLDPALPALV [VLDPALPALV (SEQ ID NO: 123)] is 20 to 49%; for KVMATIEKV [KVMATIEKV (SEQ ID NO: 124)] it is 20 to 49%; for NALDKVLSV [NALDKVLSV (SEQ ID NO: 81)] it is 50 to 75%.
GVVDPVHGV [GVVDPVHGV (SEQ ID NO: 122)] came in with a peptide exchange yield of 20 to 49%.
The figure for TQSPATLSV [TQSPATLSV (SEQ ID NO: 128)] is 20 to 49%.
Next, ALISWQPPRA [ALISWQPPRA (SEQ ID NO: 104)]: 50 to 75%.
The figure for FLLGVSKEV [FLLGVSKEV (SEQ ID NO: 110)] is 50 to 75%; for AQADHLPQL [AQADHLPQL (SEQ ID NO: 88)] it is 20 to 49%; for GQASYFYVA [GQASYFYVA (SEQ ID NO: 83)] it is 20 to 49%.
As to SLADYEHFV [SLADYEHFV (SEQ ID NO: 125)], the peptide exchange yield is at least 75%.
On to SVDSHFQEV [SVDSHFQEV (SEQ ID NO: 86)], for which the peptide exchange yield lay in the range of 20 to 49%.
On to FLDKVLVAA [FLDKVLVAA (SEQ ID NO: 141)], for which the peptide exchange yield is 50 to 75%.
The figure for VLLDIQEVFQI [VLLDIQEVFQI (SEQ ID NO: 102)] is 50 to 75%.
The figure for ALADFMLSL [ALADFMLSL (SEQ ID NO: 101)] is 50 to 75%.
Next, ALLAFFPGL [ALLAFFPGL (SEQ ID NO: 144)]: 50 to 75%; AIVDLIHDI [AIVDLIHDI (SEQ ID NO: 111)]: 20 to 49%.
As for TLIDEQDIPLV [TLIDEQDIPLV (SEQ ID NO: 77)], the peptide exchange yield fell in the range of 50 to 75%.
As to FLFGGVLMTL [FLFGGVLMTL (SEQ ID NO: 136)], the peptide exchange yield lay in the range of 20 to 49%.
With QLAPVFQRV [QLAPVFQRV (SEQ ID NO: 89)], the peptide exchange yield fell in the range of 20 to 49%.
Next, SLDPSVTHL [SLDPSVTHL (SEQ ID NO: 109)]: 20 to 49%; YLWATIQRI [YLWATIQRI (SEQ ID NO: 145)]: 50 to 75%; YLMDDTVEI [YLMDDTVEI (SEQ ID NO: 147)]: at least 75%.
Next, YLLQSVNQLLL [YLLQSVNQLLL (SEQ ID NO: 99)]: 20 to 49%.
The molecule FIIQGLRSVGA [FIIQGLRSVGA (SEQ ID NO: 119)] showed a peptide exchange yield of 50 to 75%.
VLYDRPLKI [VLYDRPLKI (SEQ ID NO: 150)] had a peptide exchange yield of 50 to 75%.
Take GLLFSLRSV [GLLFSLRSV (SEQ ID NO: 92)]: the peptide exchange yield is at least 75%.
ALHFSEDEI [ALHFSEDEI (SEQ ID NO: 146)]: the peptide exchange yield was in the range of 20 to 49%.
ALLGMIIVGV [ALLGMIIVGV (SEQ ID NO: 100)] displayed a peptide exchange yield below 20%.
Consider ILGEVLAQL [ILGEVLAQL (SEQ ID NO: 132)], for which the peptide exchange yield fell in the range of 50 to 75%.
Next, VTSNSGILGV [VTSNSGILGV (SEQ ID NO: 131)]: 50 to 75%; RLFPDFFTRVAL [RLFPDFFTRVAL (SEQ ID NO: 98)]: 20 to 49%.

For the origin of these results see US20170165339A1 (IMMATICS BIOTECHNOLOGIES, published 2017).
